The text below walks through data of the nanobody polyreactivity screen of Harvey et al. (2022).

The series can be described thus: yeast display, Sf9 membrane polyspecificity reagent, FACS + sequencing; frameworks hold sequencing errors. The method in brief:
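Using colony PCR, genes from sorted yeast display clones were amplified, then sequenced on MiSeq at 2 × 250 and filtered by CDR length. The clones had been stained with 10% biotinylated, detergent-solubilized Sf9 membrane reagent for 1 hour at 4 °C and sorted by FACS into low and high (top ~1%) gates on anti-HA and streptavidin fluorescence. Polyreactivity labels come from the gate of origin.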
Consider “QVQLVESGGGLVQAGGSLRLSCAPSGSTFRLYAMGWYRQAPGKERELVAVISGSGGNTYDADSVKGRFTISRDNAKNTVELQMNSLKPEDTAVDYCAAYSYRDRDDYWGQGTQGTVSS”, for which the “polyreactivity (PSR sort gate)” value is reported as “high polyreactivity”. As for “QVQLVESGGGLVQAGGSLRLSCAPSGYIFDIYAMVWYRQAPGKERELVAGITRNGGSTYYADSVKGRFTISRDNAKNTVYLQMNSLKPEDTAVYYCAAGWITRSLYHKYYSWGQGTQVTVSS”, the “polyreactivity (PSR sort gate)” value was “high polyreactivity”.

For the sequence “QVQLVESGGGLVQAGGSLRLSCAPSRYIFYPYAMGWYRQAPGKEREFVATISYRGGSTYYADSVKGRFTISRDNAKNTVYLQMNSLKPEDTAVYYCAAREPWYYGYGDYWGHGTQVTVSS”, the “polyreactivity (PSR sort gate)” value is “high polyreactivity”.

As for “QVQLVESGGGLVQAGGSLRLSCAPYGFTFSKYAMGWYRKAPGKERELVAAITYSGGTTYYADSVKGRFTISRDNAKNTVYLQMNSLKPEDTAVYYCAADTKRRSIRYDYWGQGTQVTVSS”, the “polyreactivity (PSR sort gate)” value was “high polyreactivity”.

For the sequence “QVQLVESGGGLVQAGGSLRLSCAQSGFTKSTYTMGWYRQAPGKESELVAAIRRSGDSTYYGDSVKGRFTISRDHAKNTVYLQMKRLKPEDTAVYYSNAVRYRFERYDYWGQGTQVTVSS”, the “polyreactivity (PSR sort gate)” value is listed as “high polyreactivity”.

With “QVQLVESGGGLVQAGGSLRLSCASSGFIFRGYAMGWYRQAPGKERELVAVISRSGTSTYYADSVKGRFTISRDNAKITVYLQMNSLKPEDTAVYYCAKEVWPRYIRQAYLSGYESWGQGTQVTVSS”, the “polyreactivity (PSR sort gate)” value is on record as “high polyreactivity”. The entry for “QVQLVESGGGLVQAGGSLRLSCASSGFTFYKYVMGGYRQDPGKEREMVAASSRSGGSTYYADSVKGRFTISRDNAKNTVYLQMNSLIPEDTAVYSCAKDSCGAPEGPYDYWGQGTQVTVSS” is “high polyreactivity”; for “QVQLVESGGGLVQAGGSLRLSCASSGFTFYSYDMGWYRQAPGKERELVAAITWYGGSTYYADSVKGRFTISRDNAKNTVYLQMKSLKQEDTAVYYCAAELFPLQHFWVAYATRRYDYWGQCTQVTVSS” it is “low polyreactivity”. On to “QVQLVESGGGLVQAGGSLRLSCASSGFTLGYYTMGWYRQAPGKESELVAAIRSNGGSTYYADSVKGRFTISRDNAKNTVYLQMNSLKPEDTAVYYCAARRWRYVGTRYDYWGQGTQVTVSS”, for which the “polyreactivity (PSR sort gate)” value is “high polyreactivity”.

“QVQLVESGGGLVQAGGSLRLSCASSGGIFYSYDMGWYRQAPGKERELVAAITWIGGSTYYADSVKGRFTISRDNAKNTVYFQMNSLKPEDTAVYYCAAEILWGGYDYWGQGTQVSVSS”: the “polyreactivity (PSR sort gate)” value is given as “low polyreactivity”. “QVQLVESGGGLVQAGGSLRLSCASSGGTFISYAMGWYRQAPGKERELVAAISRGGSSTYYADSVKGRFTISRDNAKNTVYLQMNSLKPEDTAVYYCNKAYHRRDSEFGYWGQGTQVTVSS”: the “polyreactivity (PSR sort gate)” value is reported as “high polyreactivity”. “QVQLVESGGGLVQAGGSLRLSCASSGIIFYAYAMGWYRQAPGKERELVAAINFNTGRTYYADSVKGRFTISRDNAKNTVYLQMNSLKPEDTAVYYCAKSSYRNSGERDYWGQGTQVTVSS”: the “polyreactivity (PSR sort gate)” value is on record as “high polyreactivity”. “QVQLVESGGGLVQAGGSLRLSCASSGITFWSYAMVWYRQAPGKERELVAAISRGGDSTYYADSVKGRFTISRDNAKNTVYLQMNSLKPEDTAVYDCAALRPREEYYWGHGTQVTVSS”: the “polyreactivity (PSR sort gate)” value was “high polyreactivity”. As to “QVQLVESGGGLVQAGGSLRLSCASSGITLYGYAMGWYRQAPGKEREFVAAISRSGDRTYYADSVKGRFTISRDNAMNTVYLQMNSLKPEDTAVYYCNAWRYDYWGQGTQVTVSS”, the “polyreactivity (PSR sort gate)” value is “high polyreactivity”. Regarding “QVQLVESGGGLVQAGGSLRLSCASSGLILAPNDMGWYRQAPGKERELVAAITFRGVRTYYADSVKGRFTISRDNAKNNVYLQLNSLKPEDTAVYYCAAAVSKHYPYNYWGQGTQVSVSS”, the “polyreactivity (PSR sort gate)” value is recorded as “high polyreactivity”.

“QVQLVESGGGLVQAGGSLRLSCASSGPIFAYNAIPGYRQAPGKERELVADISSGGNTYYADSVKGRFTISRDNAKNTVYLQMNSLKPEDTAVYYCAADIAWYTHDHRIFDYWGQGTQVTVSS”: the “polyreactivity (PSR sort gate)” value was “low polyreactivity”. Turning to “QVQLVESGGGLVQAGGSLRLSCASSGRIFDQYAMGWYRQAPGKERELVAAISSDDGSTYYADSVKGRFTISRDNAKNTVYLQMNSLKPEDTAVYYCAADAWRYVDYDYWGQGTQVTVSS”, the “polyreactivity (PSR sort gate)” value is given as “low polyreactivity”. Regarding “QVQLVESGGGLVQAGGSLRLSCASSGRIFGSYAMGWYRQAPGKERELVAAISWRGTSTYYADSVKGRFTISRDNAKNTVYLQMNSLKPEDTAVYYCAARGLWPYDYWGQGTQVTVSS”, the “polyreactivity (PSR sort gate)” value was “low polyreactivity”. The entry for “QVQLVESGGGLVQAGGSLRLSCASSGRIFLTNAMGWYRQAPGKERELVAAITSGGSTYYADSVKGRFTISRDNAKNTVFLQMNSLKPEDTAVYYCIADTDRYWPYEYDYWGQGTQVTVSS” is “low polyreactivity”. Then “QVQLVESGGGLVQAGGSLRLSCASSGRIFNRYAMGWYRQAPGKERELVAAISSRGGSTYYADSVKGRFTISRDNAKNTVYLPMNSLKPEDTAVYYCAASAQKASYDWRYDYWGQGTQVTVSS”, with “high polyreactivity”; and “QVQLVESGGGLVQAGGSLRLSCASSGRIFRNNVMGWYRQAHGKVRELVAAISATGTITRYADSVKGSFTISRDYSKNTVYLQMNSLKPEDTAVYYCAKDRGWWLGFIMDYWGQGSQVTVSS”, with “low polyreactivity”. As for “QVQLVESGGGLVQAGGSLRLSCASSGRIFRYYAMGWYRQAPGKERELVAAINWSGGSTYYADSVKGRFTISRDNAKNTVYLQMNSLNPEDTAVYYCYRRAYIRYDSSSLDYWGQGTQVTVSS”, the “polyreactivity (PSR sort gate)” value is on record as “low polyreactivity”. “QVQLVESGGGLVQAGGSLRLSCASSGRIFSGYAMGSYRQAPAKERELVATITSGGGTYYADSVKGRFTISRDNAKNTVYFQMNSLKPEDTAVYYCNAEKKGSFRKYNYWGQGTQVTVSS”: the “polyreactivity (PSR sort gate)” value was “low polyreactivity”. Then “QVQLVESGGGLVQAGGSLRLSCASSGRIFSNYAMGWYRQAPGKERELVAAISWRTSNTYYADSVKGRFTISRDNAKYTVYLQMNSQKPEDTAVYYCAKYRRFRPYGSNGIYDYWGQGTQVSVSS”, with “high polyreactivity”. Regarding “QVQLVESGGGLVQAGGSLRLSCASSGRILYGSAMGWYRQAPGKERALVAAISWRSGSTYYADSVKGRFTISRDNAKNTVYLQMNSLKPEDTEVYYCAAGYGGYPGGYYWGQGTQVTVSS”, the “polyreactivity (PSR sort gate)” value is listed as “high polyreactivity”. Take “QVQLVESGGGLVQAGGSLRLSCASSGRNFYSYVMGWYRQAPGKERELVAAITRSGGTTYYADSVKGRITISRDNAKNTVYLEMYSLKPEDTAVYYCAAYVGGIRYYSWGQGTQVIVSS”: the “polyreactivity (PSR sort gate)” value is recorded as “high polyreactivity”. On to “QVQLVESGGGLVQAGGSLRLSCASSGRTFEDYTMGWYRQAPGKVWEWVAAITGGGSTNYADSVKGRFTISRDNAKNTVYLQMYSQKPEDTAVYYCAAHYRYNWFRRYSYWGQGTQETVSS”, for which the “polyreactivity (PSR sort gate)” value is given as “high polyreactivity”. For the sequence “QVQLVESGGGLVQAGGSLRLSCASSGRTFFQYAMGWYRQAPGKERELVAAIRWSDSTYYADSVKGRFTISRDNAKNTVYLQMNSLKPEDTAVYYCAAPRVSQYSTKKYDYWGQGTQVTVSS”, the “polyreactivity (PSR sort gate)” value is reported as “low polyreactivity”. Then “QVQLVESGGGLVQAGGSLRLSCASSGRTFLRYTMGWYRQAPGKERELVAAISYRGGTTYYADSVKGRFTISRDNGKNTVYLEMNSMKADETGVYYCAARNVGRTGSDFWGQGTQVTVSS”, with “low polyreactivity”; and “QVQLVESGGGLVQAGGSLRLSCASSGRTFRRYAMGWYRQAPGKERELVAAITWSGGSTYYADSVKGRFTFSRDYGKNTVYLQMNSLKPADTAEYYCAVSPLYSTSYYGLRKGYYWGQGTQVTVSS”, with “high polyreactivity”; and “QVQLVESGGGLVQAGGSLRLSCASSGRTFRYYTMGWYRQAPGKEREFVAAISSTGGTYYADSVKGRFTISRDNAKNTVYFQMNSLIPVDTAVYYCAATFIKVVVNVQLYDYDYWGQGTQVTVSS”, with “low polyreactivity”. Turning to “QVQLVESGGGLVQAGGSLRLSCASSGRTFSGYAMGWYRQAPGKERELVASITWSGGSTYYADSVKGRFTISRDNAKNTVYLQMNSLKPDDTAVYYCARDSPRGRVGFNYWGQGTQVTVSS”, the “polyreactivity (PSR sort gate)” value is “low polyreactivity”. As to “QVQLVESGGGLVQAGGSLRLSCASSGRTFSPYAMGWYRQAPGKERELVAAISSGGGNTYYADSVKGRITISRDNAKNTVYLQMNSLKPVDTAVYYCNAAQRRGGLGYWGLGTQVTVSS”, the “polyreactivity (PSR sort gate)” value was “high polyreactivity”. The entry for “QVQLVESGGGLVQAGGSLRLSCASSGRTFYDNTMGWYRQAPGKERELVAGISYSGGSTYYADSVKGRFTISRDNAKNTVYLQMNSLKPEDTAVYYCNAELYFPYFDGKTRHGGYWGQGTQVTVSS” is “low polyreactivity”; for “QVQLVESGGGLVQAGGSLRLSCASSGRTFYIYAIGWYRQAAGKERELVASISRGGSTTYADSVKGRFTISRDNAKNTVYLQMNSLKPEDTAVYYCNARAYYDMNQWGQGTQVTVSS” it is “low polyreactivity”.

For “QVQLVESGGGLVQAGGSLRLSCASSGRTFYIYDMGWYRQAPGKERELVAAITSVGSTNYADSVKGRFTISRDNAMNTVYLQMNSLKPEDTAVYYCAAESTVGTSGDYDYWGQGTQVTVSS”, the “polyreactivity (PSR sort gate)” value is listed as “low polyreactivity”. Turning to “QVQLVESGGGLVQAGGSLRLSCASSGRTISSYAMGWYRQPPGKERELVAGISWRGGRTYYADSVKGRFTISRDNAKITVYLQMNSLKPEDTAVSYCAADRVRGGYRTYYWVVHLDYWGQGTQVTVSS”, the “polyreactivity (PSR sort gate)” value is “high polyreactivity”. Regarding “QVQLVESGGGLVQAGGSLRLSCASSGRTSVINAMGWYRQAPGKERELVATITWSGASTYYADSVKGRFTISRDNAKNTVYLQMNSLKPEDTAVYYCNAESLYTPYNDTSLTVEYGYWGQGTQVTVSS”, the “polyreactivity (PSR sort gate)” value is listed as “low polyreactivity”. Regarding “QVQLVESGGGLVQAGGSLRLSCASSGRTVGYNAMGWSRQPPGKEREFVAAITWSGGRTYYADSVKGRFTISRDNAKNTVYLLMNSLKPEDTAVYYCAIDGYWDFDYWGQGTQVSVSS”, the “polyreactivity (PSR sort gate)” value is on record as “low polyreactivity”. Then “QVQLVESGGGLVQAGGSLRLSCASSGSIFAWNAMGWYRQTPGKERELVAAINSGGGTYYADSVKGRFTISRDNAKNTVYSQMNSLIPEDTAVYYCAAGRLSHRYRYNYWGQGTQVTVSS”, with “high polyreactivity”; and “QVQLVESGGGLVQAGGSLRLSCASSGSIFFANAIGWYRQAPGKERELVATISWRGGSTYYAYSVKGRFTISRDIAKNSVYLQKNSLKPEDTAVYYCAAGYYPYWGQGTQLTVSS”, with “low polyreactivity”.
